Experimental findings from publication PMC4591933 (Cancer research, 2008) are described below.

For this experiment, the target named is EGFR-NLuc (human EGF receptor fused to the N-terminal fragment of firefly luciferase) (human, UniProt P00533 25-1210). Briefly: split reporter.

B1: Shc-CLuc (human p52Shc fused to the C-terminal fragment of firefly luciferase) (natural protein, UniProt P29353-2 1-473, looked up)
chain: MNKLSGGGGRRTRVEGGQLGGEEWTRHGSFVNKPTRGWLHPNDKVMGPGVSYLVRYMGCVEVLQSMRALDFNTRTQVTREAISLVCEAVPGAKGATRRRKPCSRPLSSILGRSNLKFAGMPITLTVSTSSLNLMAADCKQIIANHHMQSISFASGGDPDTAEYVAYVAKDPVNQRACHILECPEGLAQDVISTIGQAFELRFKQYLRNPPKLVTPHDRMAGFDGSAWDEEEEEPPDHQYYNDFPGKEPPLGGVVDMRLREGAAPGAARPTAPNAQTPSHLGATLPVGQPVGGDPEVRKQMPPPPPCPGRELFDDPSYVNVQNLDKARQAVGGAGPPNPAINGSAPRDLFDMKPFEDALRVPPPPQSVSMAEQLRGEPWFHGKLSRREAEALLQLNGDFLVRESTTTPGQYVLTGLQSGQPKHLLLVDPEGVVRTKDHRFESVSHLISYHMDNHLPIISAGSELCLQQPVERKL
As to B1, the “fold induction of reconstituted luciferase over control, 15 min after EGF” value stood at 2.5 fold over control.
